Source: publication PMC7663122, “Protein-Assisted Room-Temperature Assembly of Rigid, Immobile Holliday Junctions and Hierarchical DNA Nanostructures”

Key:
[1] = molecular target: T1, Redβ (single-strand annealing protein) (UniProt P03698 1-261); assay: EMSA (agarose) and AFM; strands coated first at 37 °C, then mixed; ssDNA/Redβ 1:1 to 1:4; weak interaction, residual free ssDNA at 1:1; B1 buffer: 50 mM Tris-HCl pH 8.0, 150 mM NaCl, 1 mM MgCl2, 25 °C (sticky-end assemblies); 44mer coating and annealing at 37 °C; SEC in 100 mM Tris-HCl pH 8.0, 150 mM NaCl, 1 mM MgCl2; conditions: protein: recombinant; tags: Strep-tag II; blunt-ended immobile four-way junction, 22 bp arms
T1 sequence: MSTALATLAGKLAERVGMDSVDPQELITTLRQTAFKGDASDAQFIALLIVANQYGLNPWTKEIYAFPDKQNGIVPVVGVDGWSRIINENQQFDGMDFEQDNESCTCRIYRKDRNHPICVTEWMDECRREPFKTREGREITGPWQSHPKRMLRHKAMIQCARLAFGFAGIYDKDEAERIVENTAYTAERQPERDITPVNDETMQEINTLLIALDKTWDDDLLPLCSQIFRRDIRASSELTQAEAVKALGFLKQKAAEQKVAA

[2] = molecular target: T1, Redβ (single-strand annealing protein); assay: EMSA (agarose) and AFM; strands coated first, then mixed; ssDNA/Redβ 1:1 and 1:2; completely coated at 1:1, slightly increased affinity vs 44mer; B1 buffer: 50 mM Tris-HCl pH 8.0, 150 mM NaCl, 1 mM MgCl2, 25 °C (sticky-end assemblies); 44mer coating and annealing at 37 °C; SEC in 100 mM Tris-HCl pH 8.0, 150 mM NaCl, 1 mM MgCl2; conditions: protein: recombinant; tags: Strep-tag II; blunt-ended immobile four-way junction, 33 bp arms
[3] = molecular target: T1, Redβ (single-strand annealing protein); assay: EMSA (agarose), SEC and AFM; strands coated first, then mixed; ssDNA/Redβ 1:1 (incomplete) and 1:2 (saturated); B1 buffer: 50 mM Tris-HCl pH 8.0, 150 mM NaCl, 1 mM MgCl2, 25 °C (sticky-end assemblies); 44mer coating and annealing at 37 °C; SEC in 100 mM Tris-HCl pH 8.0, 150 mM NaCl, 1 mM MgCl2; conditions: protein: recombinant; tags: Strep-tag II; blunt-ended immobile four-way junction, 44 bp arms
[4] = molecular target: T1, Redβ (single-strand annealing protein); assay: SEC, gel and AFM; excess Redβ (ssDNA/Redβ 1:25 stated), 25 °C, 1 mM MgCl2; B1 buffer: 50 mM Tris-HCl pH 8.0, 150 mM NaCl, 1 mM MgCl2, 25 °C (sticky-end assemblies); 44mer coating and annealing at 37 °C; SEC in 100 mM Tris-HCl pH 8.0, 150 mM NaCl, 1 mM MgCl2; conditions: protein: recombinant, tags: Strep-tag II, four-way junction

B1: 44mer Holliday junction (structured_DNA)
DNA 1: CGATGCGAAATCTGTACGCGCACCACGTGAAGGTGCTAGTCCCC
DNA 2: GAATGTGTTGATGGTTAAGTTCTGCGCGTACAGATTTCGCATCG
DNA 3: GTGTCTATCATTAGCGGCTCAAGAACTTAACCATCAACACATTC
DNA 4: GGGGACTAGCACCTTCACGTGGTTGAGCCGCTAATGATAGACAC
B1: binds [1].

B2: 66mer Holliday junction (structured_DNA)
DNA 1: ATGCCGCATACAACAAGTGGGGGGATGAATAGGATGTACTGCCTTTTTTATCGACTGTCCAATATG
DNA 2: CATATTGGACAGTCGATAAAAAAGGCAGTACATACTTGGTCCACTCTGGTACAAGATGAGGTGGAT
DNA 3: ATCCACCTCATCTTGTACCAGAGTGGACCAAGTAGTGCGCGATTGACGTTCGAGGCGGACTCTCCT
DNA 4: AGGAGAGTCCGCCTCGAACGTCAATCGCGCACTCCTATTCATCCCCCCACTTGTTGTATGCGGCAT
B2: binds [2].

B3: 88mer Holliday junction (structured_DNA)
DNA 1: CAGTTCCCTAAGACATCGACGTAGGACCTTGATCAACGCAGCTATGACTTCAGAGATTCTCTTATCTGGAAGCGTCCACGAACCGGCC
DNA 2: GGCCGGTTCGTGGACGCTTCCAGATAAGAGAATCTCTGAAGTCATTTGTACACTTTTCTATTCACGAGCAAAGCCTGGTATACTAGAA
DNA 3: TTCTAGTATACCAGGCTTTGCTCGTGAATAGAAAAGTGTACAAACCCACATTGCCATCGGGCGAAATGGGGTGTGCAGCGCATGCTCG
DNA 4: CGAGCATGCGCTGCACACCCCATTTCGCCCGATGGCAATGTGGGTAGCTGCGTTGATCAAGGTCCTACGTCGATGTCTTAGGGAACTG
B3: binds [3].

B4: S1S4 sticky-end Holliday junction (structured_DNA)
DNA 1: GATTCCTTCCGGGCGAATTTACCCCAGTGAACGCTGGTCCCCGCGGTCATGCTGAAGGCGATAGTA
DNA 2: GCGGGGACCAGCGTTCACTGGGTTATTGGGTATGACGAGCTTAGATTTGGTATATGGTCTCGACTA
DNA 3: TAGTCGAGACCATATACCAAATCTAAGCTCGTCATACCCAATAAGATGTACGTTGGCGGACAGTTACATATTGTGCGCTGCCGGTGGC
DNA 4: GCCACCGGCAGCGCACAATATGTAACTGTCCGCCAACGTACATCGTAAATTCGCCCGGAAGGAATCCCGTAACGAGGCCACATTTTTG
B4: binds ([4]; two 3' overhangs 22 nt (strands 1 and 4)).

B5: S5S8 sticky-end Holliday junction (structured_DNA)
DNA 1: ATGTTGATCGGGAGAGGTCGAACCCTCTTTGATATTTGTGACTTTCGGGGCAACTATTTCCTCGGCGACCACGTTCGGTGACGGACCT
DNA 2: AGGTCCGTCACCGAACGTGGTCGCCGAGGAAATAGTTGCCCCGACAGGAAGCTAACTAACATGAGACAAAAATGTGGCCTCGTTACGG
DNA 3: TCTCATGTTAGTTAGCTTCCTGACGCCTGGCCGTATCTTCGGCTTACTATCGCCTTCAGCATGACC
DNA 4: AGCCGAAGATACGGCCAGGCGTAAGTCACAAATATCAAAGAGGGTTCGACCTCTCCCGATCAACAT
B5: binds ([4]; two 3' overhangs 22 nt (strands 2 and 3)).
